Reference: patent publication US20260078196A1 (TJ BIOPHARMA SHANGHAI, published 2026)
Changes are numbered by the printed parent chain.

B1: 4B-8F2 (bispecific antibody, human IgG1, kappa)
heavy: not shown
light: DVVMTQTPLTLSVTIGQPASISCKSSQSLLHSNGKTYLNWLLQRPGQSPNLLIYLVSKLESGVPDRFSGSGSGTDFTLKISRVEAEDLGVYYCLQATYFPYTFGSGTKLEIKRTVAAPSVFIFPPSDEQLKSGTASVVCLLNNFYPREAKVQWKVDNALQSGNSQESVTEQDSKDSTYSLSSTLTLSKADYEKHKVYACEVTHQGLSSPVTKSFNRGEC
notes: Chimeric ROR1 x 4-1BB BsAb; also called 8F2 IgG x 4-1BB VHH
B2: 4B-10C9 (bispecific antibody, human IgG1, kappa)
heavy: not shown
light: B1 light with T14A, S32I, N50K, Y98H
notes: also called 10C9 IgG x 4-1BB VHH
B3: 4B-10C9 (second entry of Table 6A, with 9C9 VH and 9C9 VL) (bispecific antibody, human IgG1, kappa)
heavy: not shown
light: DIVLTQSPAITAASLGQKVTITCSASSSVTYMHWYQQKSGTSPKLWIYDISKLASGVPARFSGSGPGTSYSLTISTMEAEDAAIYYCQQWNYPLMTFGGGTKLEIKRTVAAPSVFIFPPSDEQLKSGTASVVCLLNNFYPREAKVQWKVDNALQSGNSQESVTEQDSKDSTYSLSSTLTLSKADYEKHKVYACEVTHQGLSSPVTKSFNRGEC
notes: Label 4B-10C9 is printed twice; this entry holds the 9C9 variable domains and is probably meant as 4B-9C9; also called 10C9 IgG x 4-1BB VHH (label as printed)
B4: 4B-3C5 (bispecific antibody, human IgG1, kappa)
heavy: not shown
light: DIKMTQSPSSMYASLGERVSITCRASQDIYSYLSWFQQKPGKSPKTLIYRANRLVDGVPSRFSGSGSGQDYSLTISSLEYEDMGIYYCLQYDEFPYTFGGGTKLEIKRTVAAPSVFIFPPSDEQLKSGTASVVCLLNNFYPREAKVQWKVDNALQSGNSQESVTEQDSKDSTYSLSSTLTLSKADYEKHKVYACEVTHQGLSSPVTKSFNRGEC
notes: Chimeric ROR1 x 4-1BB BsAb; also called 3C5 IgG x 4-1BB VHH
B5: D1 (antibody, V domains shown)
VH: QVQLVQSGAEVKKPGSSVKVSCKASGGTFSSYAISWVRQAPGQGLEWMGGIIPIFGTANYAQKFQGRVTITADESTSTAYMELSSLRSEDTAVYYCARAPMVRGVPPTPYYYYYGMDVWGQGTTVTVSS
VL: EIVLTQSPATLSLSPGERATLSCRASQSVSNYLAWYQQKPGQAPRLLIYDASNRATGIPARFSGSGSGTDFTLTISSLEPEDFAVYYCQQRSNWPSFGQGTKVEIK
notes: Anti-MUC16 mAb
B6: C25 (antibody, V domains shown)
VH: EVQLLESGAEVKKPGSSVKVSCKASGGTFSSYAISWVRQAPGQGLEWMGGIIPIFGTANYAQKFQGRVTITADESTSTAYMELSSLRSEDTAVYYCARDSRKYYYDSSGPALWGFDAFDIWGQGTMVTVSS
VL: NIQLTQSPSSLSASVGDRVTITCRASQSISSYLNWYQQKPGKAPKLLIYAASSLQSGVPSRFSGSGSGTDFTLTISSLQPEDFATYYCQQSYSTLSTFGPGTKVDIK
notes: Anti-MUC16 mAb from a human naive Fab phage library; also called MUC16-C25
B7: D46 (antibody, V domains shown)
VH: QVQLVQSGAEVKKPGSSVKVSCKASGGTFSSYAISWVRQAPGQGLEWMGRIIPIFGIANYAQKFQGRVTITADKSTSTAYMELSSLRSEDTAVYYCAITGDYDILTGSYYYGMDVWGQGTTVTVSS
VL: NIQLTQSPSSLSASVGDRVTITCRASQGIRNDLGWYQQKPGKAPKLLIYAASSLQSGVPSRFSGSGSGTDFTLTISSLQPEDFATYYCLQDYNYPFTFGPGTKVDIK
notes: Anti-MUC16 mAb
B8: D20 (antibody, V domains shown)
VH: QVQLVQSGAEVKKPGSSVKVSCKASGGTFSSYAISWVRQAPGQGLEWMGGIIPIFGTANYAQKFQGRVTITADESTSTAYMELSSLRSEDTAVYYCASTPELLWFGELGGAYYFDYWGQGTLVTVSS
VL: NIQLTQSPSTLSASVGDRVTITCRASESISSWLAWYQQKPGEAPKLLIYKASTLENGVPSRFSGSGSETEFTLTISSLQPDDFATYYCQQYRSHWSSTFGPGTKVDIK
notes: Anti-MUC16 mAb
B9: D30 (antibody, V domains shown)
VH: QVQLVQSGAEVKKPGSSVKVSCKASGGTFSSYAISWVRQAPGQGLEWMGGIIPIFGTANYAQKFQGRVTITADESTSTAYMELSSLRSEDTAVYYCARANFNIYYYYYGMDVWGQGTLVTVSS
VL: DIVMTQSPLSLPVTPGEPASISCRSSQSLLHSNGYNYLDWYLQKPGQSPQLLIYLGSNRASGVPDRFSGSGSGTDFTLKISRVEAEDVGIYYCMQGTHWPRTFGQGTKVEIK
notes: Anti-MUC16 mAb
B10: C73 (antibody, V domains shown)
VH: QVQLMQSGAEVKKPGSSVKVSCKASGGTFSSYAISWVRQAPGQGLEWMGGIIPIFGTANYAQKFQGRVTITADESTSTAYMELSSLRSEDTAVYYCAREPPLSNYGDYATEQYYYGMDVWGQGTLVTVSS
VL: not shown
notes: Anti-MUC16 mAb
B11: 4-1BB VHH (VHH)
VHH: QVQLQESGGGLVQPGGSLRLSCAASGYTYSSNCMGWFRQAPGKGLEGVAVICTGGGSPSYADSVKGRFTISRDNAKNTLYLQMNSLRAEDTAVYYCAADLLRAGTPLSSYEFNYWGQGTLVTVSS

Biological target: T1, ROR1 on cells (UniProt Q01973 30-937)
T1 construct: whole, on cells; also called ROR1 endogenous expressed tumor cell A549; ROR1-positive tumor cell lines
Experiment: flow cytometry (gMFI) on A549 cells

Binder | EC50 (read off the curve) [nM]
B1 | ~0.03
B2 | ~0.3
B3 | ~0.2
B4 | ~0.08

Biological target: T2, huMUC16, AA13789-14451
T2 construct: also called MUC16 Antigen (human MUC16 AA13789-14451)
T2 chain: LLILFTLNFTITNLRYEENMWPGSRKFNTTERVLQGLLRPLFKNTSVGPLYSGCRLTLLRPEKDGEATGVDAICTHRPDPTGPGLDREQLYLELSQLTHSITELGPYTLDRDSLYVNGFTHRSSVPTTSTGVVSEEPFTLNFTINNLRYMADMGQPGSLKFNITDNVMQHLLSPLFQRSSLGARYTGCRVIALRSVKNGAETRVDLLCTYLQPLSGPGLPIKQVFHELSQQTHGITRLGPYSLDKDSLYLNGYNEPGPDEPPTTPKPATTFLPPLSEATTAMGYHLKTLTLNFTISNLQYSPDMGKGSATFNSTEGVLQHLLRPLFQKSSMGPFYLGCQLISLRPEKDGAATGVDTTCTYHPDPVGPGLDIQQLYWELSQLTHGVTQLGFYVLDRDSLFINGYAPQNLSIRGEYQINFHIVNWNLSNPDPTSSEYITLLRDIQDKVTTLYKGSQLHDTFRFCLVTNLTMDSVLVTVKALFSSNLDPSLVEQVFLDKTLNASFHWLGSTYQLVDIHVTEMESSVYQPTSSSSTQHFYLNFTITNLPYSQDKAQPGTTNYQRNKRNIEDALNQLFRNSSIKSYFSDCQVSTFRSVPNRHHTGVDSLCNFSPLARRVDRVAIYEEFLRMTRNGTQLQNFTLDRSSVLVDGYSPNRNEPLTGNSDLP
Experiment: binding ELISA on huMUC16 AA13789-14451

Binder | binding result
B5 | binds
B6 | binds
B7 | binds
B8 | binds
B9 | binds
B10 | binds

Biological target: T3, huMUC16, AA14198-14507
T3 chain: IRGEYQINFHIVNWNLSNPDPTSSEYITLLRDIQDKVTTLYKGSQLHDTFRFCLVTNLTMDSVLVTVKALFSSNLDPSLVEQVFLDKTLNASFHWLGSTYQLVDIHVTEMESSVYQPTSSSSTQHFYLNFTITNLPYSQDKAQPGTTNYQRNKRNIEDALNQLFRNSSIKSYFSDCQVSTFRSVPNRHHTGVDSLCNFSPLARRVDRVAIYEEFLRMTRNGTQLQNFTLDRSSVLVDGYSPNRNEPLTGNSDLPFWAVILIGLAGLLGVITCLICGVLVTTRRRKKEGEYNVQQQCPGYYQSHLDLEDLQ
Experiment: binding ELISA on huMUC16 AA14198-14507

Binder | binding result
B5 | no binding (tested: 100 nM)
B6 | no binding (tested: 100 nM)
B7 | no binding (tested: 100 nM)
B8 | no binding (tested: 100 nM)
B9 | no binding (tested: 100 nM)
B10 | no binding (tested: 100 nM)

Biological target: T4, 4-1BB on cells (human, UniProt Q07011 24-255)
T4 construct: Species is stated as human for section 2.2 as a whole, not for each cell line; also called HEK293 cells expressing 4-1BB; 4-1BB overexpressed HEK293 cell
Experiment: flow cytometry (gMFI) on HEK293-h4-1BB cells

T4 sequence (Q07011 24-255): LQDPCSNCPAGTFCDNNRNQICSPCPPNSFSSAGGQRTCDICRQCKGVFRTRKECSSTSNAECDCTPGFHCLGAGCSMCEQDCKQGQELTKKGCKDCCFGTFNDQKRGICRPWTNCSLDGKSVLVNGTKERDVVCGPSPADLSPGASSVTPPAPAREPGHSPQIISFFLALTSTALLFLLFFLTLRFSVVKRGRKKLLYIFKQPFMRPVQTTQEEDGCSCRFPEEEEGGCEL

Binder | EC50 (read off the curve) [nM]
B1 | ~0.2
B2 | ~0.3
B3 | ~0.3
B4 | ~0.1
B11 | ~0.2

Biological target: T5, human MUC16 on cells (human, UniProt Q8WXI7 1-14507)
T5 construct: whole, on cells; also called huMUC16; MUC16 on OVCAR3 and SNU216 cells
Experiment: flow cytometry (GMFI) on OVCAR3 cells, nM is the unit of the x axis Log10[Ab] (nM)

Binder | EC50 [nM]
B6 | 0.179
B7 | 0.347
B9 | 0.389

Biological target: T6, human MUC16 (human)
T6 construct: also called MUC16 antigen of the kinetic assay
Experiment: binding kinetics, sensorgrams in RU in FIG. 14B, model printed: Kinetics 1:1; form of the MUC16 antigen not given

Binder | Kd [nM] | koff [s⁻¹] | kon [M⁻¹ s⁻¹]
B6 | 26.9 | 0.00697 | 260000

Biological target: T5, human MUC16 on cells
Experiment: flow cytometry (MFI GeoMean) on OVCAR3 cells, nM is the unit of the x axis Log10[Ab] (nM)

Binder | EC50 [nM]
B6 | 0.242
B9 | 0.38

Biological target: T5, human MUC16 on cells
Experiment: flow cytometry (MFI GeoMean) on SNU216 cells, nM is the unit of the x axis Log10[Ab] (nM)

Binder | EC50 [nM]
B6 | 0.0978
B9 | 0.125

Biological target: T7, HEK293-MUC16 (13810-14507) (human, UniProt Q8WXI7 13810-14507)
T7 construct: range 13810-14507; also called MUC16 overexpressed HEK293 cells
T7 sequence: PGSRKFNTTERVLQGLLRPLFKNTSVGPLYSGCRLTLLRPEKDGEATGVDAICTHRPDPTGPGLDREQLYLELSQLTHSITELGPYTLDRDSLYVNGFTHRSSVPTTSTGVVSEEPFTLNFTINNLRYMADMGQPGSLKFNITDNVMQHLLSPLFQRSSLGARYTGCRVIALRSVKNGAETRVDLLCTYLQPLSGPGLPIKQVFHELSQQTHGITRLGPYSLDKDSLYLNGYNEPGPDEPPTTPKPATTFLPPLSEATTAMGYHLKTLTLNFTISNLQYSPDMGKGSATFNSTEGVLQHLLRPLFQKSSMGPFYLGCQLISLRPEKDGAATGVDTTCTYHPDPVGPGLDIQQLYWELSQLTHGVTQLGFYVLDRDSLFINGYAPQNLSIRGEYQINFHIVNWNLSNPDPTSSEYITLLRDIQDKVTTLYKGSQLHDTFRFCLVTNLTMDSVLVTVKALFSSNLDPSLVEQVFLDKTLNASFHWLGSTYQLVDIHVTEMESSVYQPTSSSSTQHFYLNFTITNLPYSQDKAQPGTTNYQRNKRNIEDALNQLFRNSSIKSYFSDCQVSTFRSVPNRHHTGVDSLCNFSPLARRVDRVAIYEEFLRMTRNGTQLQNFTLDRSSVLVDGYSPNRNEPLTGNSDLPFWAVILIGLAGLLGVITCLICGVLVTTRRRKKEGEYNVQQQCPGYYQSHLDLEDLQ
Experiment: flow cytometry (MFI GeoMean) on HEK293-MUC16 (13810-14507) cells, nM is the unit of the x axis Log10[Ab] (nM)

Binder | EC50 [nM]
B6 | 0.156
B9 | 0.277

Biological target: T5, human MUC16 on cells
Experiment: flow cytometry (GMFI) on OVCAR3 cells, nM is the unit of the x axis Log10[Ab] (nM); curve without upper plateau

Binder | EC50 [nM]
B5 | 27.6
B8 | 14.1
B10 | 50.1
